In patent US20100272750A1:

B1: HPV45.E7.20 (peptide)
peptide: ELDPVDLLCY
modifications: not checked
B2: HPV16.E2.329 (peptide)
peptide: KSAIVTLTY
modifications: not checked
B3: HPV31.E1.349 (peptide)
peptide: VMDDSEIAY
modifications: not checked
B4: HPV45.E6.95 (peptide)
peptide: NTELYNLLI
modifications: not checked
B5: HPV31.E6.46 (peptide)
peptide: AFTDLTIVY
modifications: not checked
B6: HPV16.E2.23 (peptide)
peptide: STDLRDHIDY
modifications: not checked
B7: HPV45.E2.17 (peptide)
peptide: LQDKILDHY
modifications: not checked
B8: HPV18.E2.154 (peptide)
peptide: ATCVSHRGLY
modifications: not checked
B9: HPV31.E1.272 (peptide)
peptide: KLLEKLLCI
modifications: not checked
B10: HPV31.E6.90 (peptide)
peptide: KLTNKGICDL
modifications: not checked
B11: HPV16.E1.292 (peptide)
peptide: KLLSKLLCV
modifications: not checked
B12: HPV18.E6.24 (peptide)
peptide: SLQDIEITCV
modifications: not checked
B13: HPV18.E1.266 (peptide)
peptide: ILYAHIQCL
modifications: not checked
B14: HPV18.E2.230 (peptide)
peptide: STVSVGTAK
modifications: not checked
B15: HPV31.E2.291 (peptide)
peptide: ATTPIIHLK
modifications: not checked
B16: HPV18.E7.6 (peptide)
peptide: ATLQDIVLH
modifications: not checked
B17: HPV45.E6.84 (peptide)
peptide: SVYGETLEK
modifications: not checked
B18: HPV16.E4.9 (peptide)
peptide: AATKYPLLK
modifications: not checked
B19: HPV45.E1.411 (peptide)
peptide: RQMNMSQWIK
modifications: not checked
B20: HPV18.E2.61 (peptide)
peptide: QVVPAYNISK
modifications: not checked
B21: HPV18.E1.210 (peptide)
peptide: KQGAMLAVFK
modifications: not checked
B22: HPV18.E2.211 (peptide)
peptide: TVSATQLVK
modifications: not checked
B23: HPV16.E1.483 (peptide)
peptide: KSLFGMSLMK
modifications: not checked
B24: HPV16.E6.49 (peptide)
peptide: VYDFAFRDLCI
modifications: not checked
B25: HPV18.E2.168 (peptide)
peptide: GYNTFYIEF
modifications: not checked
B26: HPV31.E6.69 (peptide)
peptide: FYSKVSEFRW
modifications: not checked
B27: HPV18/45.E1.491 (peptide)
peptide: SYFGMSFIHF
modifications: not checked
B28: HPV45.E1.578 (peptide)
peptide: VFTFPHAFPF
modifications: not checked
B29: HPV45.E6.44 (peptide)
peptide: VYQFAFKDL
modifications: not checked
B30: HPV18.E5.14 (peptide)
peptide: MYVCCHVPL
modifications: not checked
B31: HPV31.E6.83 (peptide)
peptide: VYGTTLEKL
modifications: not checked
B32: HPV31.E1.557 (peptide)
peptide: PYLHSRLVVF
modifications: not checked
B33: HPV45.E2.144 (peptide)
peptide: YYITETGIW
modifications: not checked
B34: HPV18.E5.52 (peptide)
peptide: VYVFCFLLPM
modifications: not checked
B35: HPV31.E1.565 (peptide)
peptide: VFTFPNPFPF
modifications: not checked
B36: HPV31.E5.64 (peptide)
peptide: VVFIYIPLF
modifications: not checked
B37: HPV16.E1.214 (peptide)
peptide: LYGVSFSEL
modifications: not checked
B38: HPV18.E2.142 (peptide)
peptide: YYMTDAGTW
modifications: not checked
B39: HPV18.E6.89 (peptide)
peptide: TLEKLTNTGLY
modifications: not checked

biological target: HLA A0101 (human); assay: 125I-probe competition, purified HLA; settings: not given

Binder | IC50 [nM]
B1 | 26
B2 | 9
B3 | 18
B4 | 32
B5 | 31
B6 | 113
B7 | 32
B8 | 421

biological target: HLA A0201 (human); assay: 125I-probe competition, purified HLA; settings: not given

Binder | IC50 [nM]
B9 | 19
B10 | 205
B11 | 31
B12 | 153

same assay, conditions: remark: other sources report otherwise

Binder | IC50 [nM]
B13 | 33

biological target: HLA A0202 (human); assay: 125I-probe competition, purified HLA; settings: not given

Binder | IC50 [nM]
B9 | 21
B10 | 440
B11 | 67.7
B12 | 25

same assay, conditions: remark: other sources report otherwise

Binder | IC50 [nM]
B13 | 8.5

biological target: HLA A0203 (human); assay: 125I-probe competition, purified HLA; settings: not given

Binder | IC50 [nM]
B9 | 2.4
B10 | 585
B11 | 23
B12 | 38

same assay, conditions: remark: other sources report otherwise

Binder | IC50 [nM]
B13 | 10.2

biological target: HLA A0206 (human); assay: 125I-probe competition, purified HLA; settings: not given

Binder | IC50 [nM]
B9 | 51
B10 | 484
B11 | 125
B12 | 205

same assay, conditions: remark: other sources report otherwise

Binder | IC50 [nM]
B13 | 236

biological target: HLA A0301 (human); assay: 125I-probe competition, purified HLA; settings: not given

Binder | IC50 [nM]
B14 | 34
B15 | 10
B16 | 211
B17 | 21
B18 | 59
B19 | 15
B20 | 308
B21 | 35
B22 | 7
B23 | 3.9

biological target: HLA A1101 (human); assay: 125I-probe competition, purified HLA; settings: not given

Binder | IC50 [nM]
B14 | 6
B15 | 1.2
B16 | 11
B17 | 9.5
B18 | 20
B19 | 11
B20 | 14
B21 | 11
B22 | 4
B23 | 2

biological target: HLA A2302 (human); assay: 125I-probe competition, purified HLA; settings: not given

Binder | IC50 [nM]
B24 | 8.9
B25 | 13
B26 | 8.8
B27 | 4.3
B28 | 15.9
B29 | 1.1
B30 | 24
B31 | 8.2
B32 | 2.8
B33 | 2
B34 | 57
B35 | 12
B36 | 108
B37 | 7.2
B38 | 14

biological target: HLA A2402 (human); assay: 125I-probe competition, purified HLA; settings: not given

Binder | IC50 [nM]
B24 | 22
B26 | 4.5
B27 | 17.5
B28 | 90.4
B29 | 4
B30 | 15
B31 | 26
B32 | 38.7
B33 | 8.5
B34 | 178
B35 | 17
B36 | 276
B37 | 3.1
B38 | 3.2

biological target: HLA A2601 (human); assay: 125I-probe competition, purified HLA; settings: not given

Binder | IC50 [nM]
B1 | 2110
B4 | 17300
B6 | 758
B7 | 5000
B8 | 646

same assay, conditions: remark: other sources report otherwise

Binder | IC50 [nM]
B39 | 265

biological target: HLA A2902 (human); assay: 125I-probe competition, purified HLA; settings: not given

Binder | IC50 [nM]
B1 | 4290
B25 | 835
B26 | 1780
B27 | 62
B28 | 57
B3 | 95
B32 | 4360
B34 | 5280
B35 | 603
B5 | 36
B36 | 302
B38 | 3410
B8 | 4210

biological target: HLA A3002 (human); assay: 125I-probe competition, purified HLA; settings: not given

Binder | IC50 [nM]
B25 | 1260
B26 | 1360
B27 | 1540
B2 | 6
B3 | 2550
B29 | 165
B30 | 4720
B31 | 1240
B32 | 2230
B5 | 71
B6 | 17
B7 | 836
B36 | 268
B38 | 2150
B8 | 28

same assay, conditions: remark: other sources report otherwise

Binder | IC50 [nM]
B39 | 476

biological target: HLA A3101 (human); assay: 125I-probe competition, purified HLA; settings: not given

Binder | IC50 [nM]
B14 | 1760
B15 | 34
B16 | 543
B17 | 6510
B19 | 45
B20 | 6660
B21 | 519
B22 | 6140
B23 | 230

biological target: HLA A6801 (human); assay: 125I-probe competition, purified HLA; settings: not given

Binder | IC50 [nM]
B14 | 10
B15 | 2.5
B17 | 7.2
B19 | 2560
B20 | 8
B21 | 235
B22 | 31
B23 | 887
